# Assay results as given in patent US20250361282A1 (Bayer, published 2025).
# Several values for one entry are separate records, joined by “and”; a condition that tells them apart may be missing. Equal entries are not always repeated.
# T1: human NPRA (human, UniProt P16066 33-1061)
# T1 sequence (looked up): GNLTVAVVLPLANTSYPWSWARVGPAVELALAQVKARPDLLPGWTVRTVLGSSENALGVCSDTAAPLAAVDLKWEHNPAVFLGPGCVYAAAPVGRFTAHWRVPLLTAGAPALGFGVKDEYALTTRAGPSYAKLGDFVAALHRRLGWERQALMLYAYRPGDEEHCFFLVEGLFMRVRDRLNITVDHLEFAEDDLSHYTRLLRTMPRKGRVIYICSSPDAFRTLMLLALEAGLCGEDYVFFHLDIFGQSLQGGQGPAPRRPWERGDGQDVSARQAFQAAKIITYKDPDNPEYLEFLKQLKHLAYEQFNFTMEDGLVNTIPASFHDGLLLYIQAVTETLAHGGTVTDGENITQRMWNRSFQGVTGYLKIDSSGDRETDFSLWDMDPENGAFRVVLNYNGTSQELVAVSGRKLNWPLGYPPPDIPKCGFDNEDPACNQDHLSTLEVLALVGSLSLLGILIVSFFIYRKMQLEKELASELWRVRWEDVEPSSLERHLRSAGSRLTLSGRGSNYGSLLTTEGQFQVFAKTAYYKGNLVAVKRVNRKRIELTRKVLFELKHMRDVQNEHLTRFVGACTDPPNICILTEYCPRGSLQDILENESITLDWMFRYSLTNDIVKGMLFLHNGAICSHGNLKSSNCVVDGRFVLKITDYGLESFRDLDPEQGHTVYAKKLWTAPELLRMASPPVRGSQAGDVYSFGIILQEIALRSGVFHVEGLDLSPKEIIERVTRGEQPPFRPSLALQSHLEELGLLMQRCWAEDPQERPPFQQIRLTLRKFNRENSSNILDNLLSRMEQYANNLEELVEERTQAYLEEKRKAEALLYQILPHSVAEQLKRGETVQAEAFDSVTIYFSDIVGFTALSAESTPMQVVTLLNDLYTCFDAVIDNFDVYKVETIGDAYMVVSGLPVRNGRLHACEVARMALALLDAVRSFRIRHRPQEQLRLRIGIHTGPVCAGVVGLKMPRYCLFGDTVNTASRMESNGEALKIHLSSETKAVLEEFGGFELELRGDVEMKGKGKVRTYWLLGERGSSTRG
# T2: human NPRA (human, UniProt P16066 33-1061)
# T2 sequence (looked up): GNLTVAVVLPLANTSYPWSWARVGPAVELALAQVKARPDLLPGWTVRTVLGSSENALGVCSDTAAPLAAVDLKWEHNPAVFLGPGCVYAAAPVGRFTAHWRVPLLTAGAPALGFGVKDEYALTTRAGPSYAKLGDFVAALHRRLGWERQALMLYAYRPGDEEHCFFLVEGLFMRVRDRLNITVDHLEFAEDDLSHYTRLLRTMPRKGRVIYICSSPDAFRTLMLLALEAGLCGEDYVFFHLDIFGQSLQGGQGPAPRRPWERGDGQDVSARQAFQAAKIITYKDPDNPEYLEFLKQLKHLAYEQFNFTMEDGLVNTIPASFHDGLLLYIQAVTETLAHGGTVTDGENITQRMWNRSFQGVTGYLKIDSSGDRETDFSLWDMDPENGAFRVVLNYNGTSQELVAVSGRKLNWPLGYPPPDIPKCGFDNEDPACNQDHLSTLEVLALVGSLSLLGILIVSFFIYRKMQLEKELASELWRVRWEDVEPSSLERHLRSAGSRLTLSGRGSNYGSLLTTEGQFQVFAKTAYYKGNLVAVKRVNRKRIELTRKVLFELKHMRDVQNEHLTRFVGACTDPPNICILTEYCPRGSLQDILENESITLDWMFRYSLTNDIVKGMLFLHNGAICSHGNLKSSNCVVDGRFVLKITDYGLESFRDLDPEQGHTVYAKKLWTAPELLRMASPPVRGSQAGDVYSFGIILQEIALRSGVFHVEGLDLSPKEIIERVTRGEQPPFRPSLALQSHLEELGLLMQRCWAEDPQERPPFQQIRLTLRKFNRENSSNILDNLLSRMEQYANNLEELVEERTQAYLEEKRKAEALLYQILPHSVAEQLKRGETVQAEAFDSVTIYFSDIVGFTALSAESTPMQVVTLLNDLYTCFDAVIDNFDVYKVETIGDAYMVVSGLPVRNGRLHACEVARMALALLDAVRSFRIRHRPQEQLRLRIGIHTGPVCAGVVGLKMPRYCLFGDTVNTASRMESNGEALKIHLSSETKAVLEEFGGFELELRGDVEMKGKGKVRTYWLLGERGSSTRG
# How the values were obtained:
# human NPRA [1] = molecular target: T1, human NPRA; assay: cell-based or functional assay
# human NPRA [2] = molecular target: T2, human NPRA; assay: cell-based or functional assay; remark: listed apart in the source
binder,measurement,setting,value
"TPP-13061 (antibody, human IgG1, lambda) heavy: not shown light: QSVLTQPPSVSGAPGQRVTISCTGSSSNIGAGYDVHWYQQLPGTAPKLLIYGNSNRPSGVPDRFSGSKSGTSASLAITGLQAEDEADYYCQSYDSSLSGVVFGGGTKLTVLGQPKAAPSVTLFPPSSEELQANKATLVCLISDFYPGAVTVAWKADSSPVKAGVETTTPSKQSNNKYAASSYLSLTPEQWKSHRSYSCQVTHEGSTVEKTVAPTECS",average rel logEC50 (vs TPP-5661),human NPRA [1],-0.7
same,"rel. logEC50* pcs (vs TPP-5661, hNPRA-HEK293)",human NPRA [1],-0.6 and -0.8
"TPP-10847 (antibody, human IgG1, lambda) heavy: not shown light: QSVLTQPPSVSGAPGQRVTISCTGSSSNIGAGYDVHWYQQLPGTAPKLLIYGNSNRPSGVPDRFSGSKSGTSASLAITGLQAEDEADYYCQSYDSSLSGVVFGGGTKLTVLGQPKAAPSVTLFPPSSEELQANKATLVCLISDFYPGAVTVAWKADSSPVKAGVETTTPSKQSNNKYAASSYLSLTPEQWKSHRSYSCQVTHEGSTVEKTVAPTECS",average rel logEC50 (vs TPP-5661),human NPRA [1],-0.5
same,"rel. logEC50 pcs 5 (vs TPP-5661, hNPRA-CHO k1)",human NPRA [1],0
same,"rel. logEC50 pcs 6 (vs TPP-5661, hNPRA-CHO k1)",human NPRA [1],-0.9
TPP-13230 (antibody) heavy: not shown light: QSVLTQPPSVSGAPGQRVTISCTGSSSNIGAGYDVHWYQQLPGTAPKLLIYGNSNRPSGVPDRFSGSKSGTSASLAITGLQAEDEADYYCQSYDSSLSGVVFGGGTKLTVLGQPKAAPSVTLFPPSSEELQANKATLVCLISDFYPGAVTVAWKADSSPVKAGVETTTPSKQSNNKYAASSYLSLTPEQWKSHRSYSCQVTHEGSTVEKTVAPTECS,average rel logEC50,human NPRA [2],-0.3 delta logEC50 vs TPP-5661
same,rel. logEC50 pcs 9,human NPRA [2],-0.3 delta logEC50 vs TPP-5661
"TPP-10765 (antibody, human IgG1, lambda) heavy: not shown light: QSVLTQPPSVSGAPGQRVTISCTGSSSNIGAGYDVHWYQQLPGTAPKLLIYGNSNRPSGVPDRFSGSKSGTSASLAITGLQAEDEADYYCQSYDSSLSGVVFGGGTKLTVLGQPKAAPSVTLFPPSSEELQANKATLVCLISDFYPGAVTVAWKADSSPVKAGVETTTPSKQSNNKYAASSYLSLTPEQWKSHRSYSCQVTHEGSTVEKTVAPTECS","activity rcs (cGMP, hNPRA-CHO k1)",human NPRA [1],72%
same,average rel logEC50 (vs TPP-5661),human NPRA [1],-0.4
same,"rel. activity rcs (delta logEC50 vs TPP-5661, hNPRA-CHO k1)",human NPRA [1],-0.9
same,"rel. logEC50 pcs 5 (vs TPP-5661, hNPRA-CHO k1)",human NPRA [1],-0.9
same,"rel. logEC50 pcs 6 (vs TPP-5661, hNPRA-CHO k1)",human NPRA [1],-0.4
same,"rel. logEC50 pcs 7 (vs TPP-5661, hNPRA-CHO k1)",human NPRA [1],0.2
TPP-5661 (antibody) heavy: not shown light: QSVLTQPPSVSGAPGQRVTISCTGSSSNIGAGYDVHWYQQLPGTAPKLLIYGNSNRPSGVPDRFSGSKSGTSASLAITGLQAEDEADYYCQSYDSSLSGVVFGGGTKLTVLGQPKAAPSVTLFPPSSEELQANKATLVCLISDFYPGAVTVAWKADSSPVKAGVETTTPSKQSNNKYAASSYLSLTPEQWKSHRSYSCQVTHEGSTVEKTVAPTECS,activity rcs,human NPRA [2],36%
same,average rel logEC50,human NPRA [2],0 delta logEC50 vs TPP-5661
same,rel. activity rcs,human NPRA [2],0 delta logEC50 vs TPP-5661
same,rel. logEC50* pcs,human NPRA [2],0 delta logEC50 vs TPP-5661
same,rel. logEC50 ics,human NPRA [2],0 delta logEC50 vs TPP-5661
same,rel. logEC50 pcs 1,human NPRA [2],0 delta logEC50 vs TPP-5661
same,rel. logEC50 pcs 2,human NPRA [2],0 delta logEC50 vs TPP-5661
same,rel. logEC50 pcs 3,human NPRA [2],0 delta logEC50 vs TPP-5661
same,rel. logEC50 pcs 4,human NPRA [2],0 delta logEC50 vs TPP-5661
same,rel. logEC50 pcs 5,human NPRA [2],0 delta logEC50 vs TPP-5661
same,rel. logEC50 pcs 6,human NPRA [2],0 delta logEC50 vs TPP-5661
same,rel. logEC50 pcs 7,human NPRA [2],0 delta logEC50 vs TPP-5661
same,rel. logEC50 pcs 8,human NPRA [2],0 delta logEC50 vs TPP-5661
same,rel. logEC50 pcs 9,human NPRA [2],0 delta logEC50 vs TPP-5661
TPP-10274 (antibody) heavy: not shown light: QSVLTQPPSVSGAPGQRVTISCTGSSSNIGAGYDVHWYQQLPGTAPKLLIYGNSNRPSGVPDRFSGSKSGTSASLAITGLQAEDEADYYCQSYDSSLSGVVFGGGTKLTVLGQPKAAPSVTLFPPSSEELQANKATLVCLISDFYPGAVTVAWKADSSPVKAGVETTTPSKQSNNKYAASSYLSLTPEQWKSHRSYSCQVTHEGSTVEKTVAPTECS,"activity rcs (cGMP, hNPRA-CHO k1)",human NPRA [1],71%
same,average rel logEC50 (vs TPP-5661),human NPRA [1],-0.1
same,"rel. logEC50 pcs 2 (vs TPP-5661, hNPRA-CHO k1)",human NPRA [1],-0.3
same,"rel. logEC50 pcs 3 (vs TPP-5661, hNPRA-CHO k1)",human NPRA [1],-0.2
same,"rel. logEC50 pcs 7 (vs TPP-5661, hNPRA-CHO k1)",human NPRA [1],0
TPP-10290 (antibody) heavy: not shown light: QSVLTQPPSVSGAPGQRVTISCTGSSSNIGAGYDVHWYQQLPGTAPKLLIYGNSNRPSGVPDRFSGSKSGTSASLAITGLQAEDEADYYCQSYDSSLSGVVFGGGTKLTVLGQPKAAPSVTLFPPSSEELQANKATLVCLISDFYPGAVTVAWKADSSPVKAGVETTTPSKQSNNKYAASSYLSLTPEQWKSHRSYSCQVTHEGSTVEKTVAPTECS,activity rcs,human NPRA [2],84%
same,average rel logEC50,human NPRA [2],-0.5 delta logEC50 vs TPP-5661
same,rel. logEC50 pcs 2,human NPRA [2],-0.8 delta logEC50 vs TPP-5661
same,rel. logEC50 pcs 3,human NPRA [2],-0.1 delta logEC50 vs TPP-5661
